In publication PMC11592472:

How the values were obtained:
[1] = target: equine LH/CGR trileucine mutant eLH/CGR-AAA (equine)
[2] = target: equine LH/CGR trileucine mutant eLH/CGR-ALL (equine)
[3] = target: equine LH/CGR trileucine mutant eLH/CGR-LAL (equine)
[4] = target: equine LH/CGR trileucine mutant eLH/CGR-LLA (equine)
[5] = target: equine lutropin/choriogonadotropin receptor, wild type (eLH/CGR-wt) (equine)

## recombinant equine chorionic gonadotropin (rec-eCG) (from UniProt P01220 25-120; P08751 21-169) (ligand)
[1]
  EC50 of the cAMP response (HTRF) of transfected CHO-K1 cells stimulated with rec-eCG for 30 min at room temperature: 0.0352 µg/mL
[2]
  EC50 of the cAMP response (HTRF) of transfected CHO-K1 cells stimulated with rec-eCG for 30 min at room temperature: 0.0046 µg/mL
[3]
  EC50 of the cAMP response (HTRF) of transfected CHO-K1 cells stimulated with rec-eCG for 30 min at room temperature: 0.0143 µg/mL
[4]
  EC50 of the cAMP response (HTRF) of transfected CHO-K1 cells stimulated with rec-eCG for 30 min at room temperature: 0.0197 µg/mL
[5]
  EC50 of the cAMP response (HTRF) of transfected CHO-K1 cells stimulated with rec-eCG for 30 min at room temperature: 0.0185 µg/mL
